This assay addresses T1, TRF2 (human), Q15554.
T1 chain: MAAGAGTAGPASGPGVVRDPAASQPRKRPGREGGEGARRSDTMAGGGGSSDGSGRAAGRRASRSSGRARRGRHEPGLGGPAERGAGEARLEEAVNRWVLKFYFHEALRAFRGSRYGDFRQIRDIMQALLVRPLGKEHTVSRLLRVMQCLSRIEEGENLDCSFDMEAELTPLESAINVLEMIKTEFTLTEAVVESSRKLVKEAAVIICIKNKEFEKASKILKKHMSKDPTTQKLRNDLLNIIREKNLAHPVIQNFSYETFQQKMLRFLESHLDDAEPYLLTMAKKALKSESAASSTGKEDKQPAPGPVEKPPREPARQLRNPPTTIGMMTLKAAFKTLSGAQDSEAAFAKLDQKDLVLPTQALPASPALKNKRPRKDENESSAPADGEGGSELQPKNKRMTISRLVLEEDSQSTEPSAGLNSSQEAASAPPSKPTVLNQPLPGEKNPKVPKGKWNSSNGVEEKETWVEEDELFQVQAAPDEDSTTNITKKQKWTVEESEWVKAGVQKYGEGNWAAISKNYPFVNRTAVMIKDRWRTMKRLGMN
The settings on record: remark: other sources report otherwise.

B1: TRF2, Q15554 1-542 (natural protein)
chain: T1 chain
As a reminder, the stoichiometry N is the number of molecules, sites or subunits per partner or assembly. For B1, the stoichiometry N is 2.

These data come from paper doi:10.1101/2021.04.30.442189.
